Assay results taken from publication PMC3461476, “Functional expression of a penicillin acylase from the extreme thermophile Thermus thermophilus HB27 in Escherichia coli” (Microbial Cell Factories, 2012).

How the values were obtained:
Assay in all cases: initial rates of hydrolysis, fluorescamine detection of primary amine product
[1] = biological target: T1, TthPAC (Thermus thermophilus, UniProt Q72G76, DEL247-255); type: biochemical; details: 20 mM MES pH 5.5, 65 °C; kcat unit taken from kcat/Km in mM^-1.seg^-1
T1 construct: gene TT_C1972; One gene: precursor without its first 32 residues (membrane anchor), 2223 bp insert in pET28a, His6-tag (20 aa) at N-terminus of alpha subunit kept
Text: (§1) initial rates of hydrolysis, fluorescamine detection of primary amine product on TthPAC

[2] = substrate: CC/C=C/CC(=O)N[C@@H]1C(=O)N2[C@@H]1SC(C)(C)[C@@H]2C(=O)O; type: biochemical, Thermus thermophilus; details: 20 mM MES pH 5.5, 65 °C, kcat unit taken from kcat/Km in mM^-1.seg^-1
Text: as §1

[3] = substrate: CC1(C)S[C@@H]2[C@H](NC(=O)COc3ccccc3)C(=O)N2[C@H]1C(=O)O; type: biochemical, Thermus thermophilus; details: 20 mM MES pH 5.5, 65 °C, kcat unit taken from kcat/Km in mM^-1.seg^-1
Text: as §1

[4] = substrate: CCCCCC(=O)N[C@@H]1C(=O)N2[C@@H]1SC(C)(C)[C@@H]2C(=O)O; type: biochemical, Thermus thermophilus; details: 20 mM MES pH 5.5, 65 °C, kcat unit taken from kcat/Km in mM^-1.seg^-1
Text: as §1

[5] = substrate: CCCCCCCC(=O)N[C@@H]1C(=O)N2[C@@H]1SC(C)(C)[C@@H]2C(=O)O; type: biochemical, Thermus thermophilus; details: 20 mM MES pH 5.5, 65 °C, kcat unit taken from kcat/Km in mM^-1.seg^-1
Text: as §1

Q: `CC1(C)S[C@@H]2[C@H](NC(=O)Cc3ccccc3)C(=O)N2[C@H]1C(=O)O` [Penicillin G] was tested. Which “K m (mM)” value [1] did it give?
A: ~ Approx. 2.90 mM

B1: TthPAC (Thermus thermophilus HB27; DEL247-255) (protein)
chain: LYLRASLPQGEGRIALEGLSAPVEVVRDGKGVVRIRAATLKDLFFAQGFVHAQERLWQMEFQRRVGQGRLSEILGEATLPQDRFLRTWGFYRAARAAYGKLYPEEKEAVDAYAAGVNAFLASGAPLPPEFRLLGFRPEPWTGPDVLVWAKMMSYDLSGNWEEELKRHRLLARGVSPKRLLELKPPYPEDAPTVLRAEDLKLPLKREEAPSALLRSNNWVVAGSRTETGKPFLANDPHLALQAPSLWFLMALEAPGLRAIGATLPGLPGVVIGRNERIAWGVTNVGADVEDLYLLEEVEGRGYRYKGRVVPYGVREEVIRVKGGREEVLKVRETVYGPVITDALEDPPKTPMALRWVSLDEEDHILMAFLGVNRAGNWEEFKKALLPYSAPSQNFVYADVEGNIGYIAPGKFPVRKEGHTGMVPVPGNGEWDWLGYRRPEEWPQAFNPARGYLVTANHKVTPKGFPYALTYDWAEPYRAERIEELLLAKEKLSLEDMKAIQQDQKSLLYRDFRPVLELLTPLSEGARAWRDRLLAWDGTMAPGSEEALVFALWYTELTRLPQREVGEAYWDEPRYLLKALKEGDKNCDQPETEYRESCLDYAALALERALDRKEALGARAWGEVHRARFPHAVLTHTPLKRLSDREVAFGGDRYTVNVGPFDPETLAMGHGPSYRQIVDLSDMEGSLFVHPMGQSGHFLSRHYADLLPLWQRGDYLPMRFGAPLGRTLLLEPLPSP
notes: One gene: precursor without its first 32 residues (membrane anchor), 2223 bp insert in pET28a, His6-tag (20 aa) at N-terminus of alpha subunit kept
Q: With B1 as the molecule, how does the Km [2] read?
A: 0.94 ± 0.18 mM

Q: What about the kcat [2] of the same molecule?
A: 0.90 ± 0.03 s⁻¹

Q: And the kcat/Km [2]?
A: 960 M⁻¹ s⁻¹

Q: What about the Km [3] of the same molecule?
A: 0.74 ± 0.11 mM

Q: What about the kcat [3] of the same molecule?
A: 0.57 ± 0.01 s⁻¹

Q: What about the kcat/Km [3] of the same molecule?
A: 770 M⁻¹ s⁻¹

Q: What about the Km [4] of the same molecule?
A: 0.98 ± 0.22 mM

Q: What about the kcat [4] of the same molecule?
A: 1.46 ± 0.06 s⁻¹

Q: And the kcat/Km [4]?
A: 1490 M⁻¹ s⁻¹

Q: And the Km [5]?
A: 0.32 ± 0.05 mM

Q: And the kcat [5]?
A: 5.16 ± 0.13 s⁻¹

Q: What about the kcat/Km [5] of the same molecule?
A: 16100 M⁻¹ s⁻¹
